Source: paper PMC10961335

Biological target: MGF505-4R fused to NanoLuciferase fragment N1 (pDEST-N2H-N1) (African swine fever virus, Georgia 2007/1 strain)
Assay: split reporter (BiFC, NanoBiT)

swine TRAF3 fused to NanoLuciferase fragment N2 (pDEST-N2H-N2) (natural protein)
luminescence score (fold increase over N1-MGF505-4R with empty N2 vector): 8.5 fold
